This is an account of results in paper PMC10636607 (Cell Reports, 2023).

For experiment [1], the target named is T1, biotinylated C-terminal αTSR domain of P. falciparum circumsporozoite protein (P. falciparum, UniProt Q7K740).
T1 construct: also called P. falciparum CSP
Kind of experiment: BLI. Conditions: both partners purified.

For experiment [2], the target named is biotinylated influenza hemagglutinin (HA) from H1N1 A/California/07/2009 (Influenza A virus A/California/07/2009 …, UniProt C3W5X2, strain, biotinylated). Kind of experiment: BLI. As to conditions: both partners purified.

T1 sequence (Q7K740 310-375): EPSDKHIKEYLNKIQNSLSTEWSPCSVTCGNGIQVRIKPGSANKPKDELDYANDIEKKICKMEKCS

B1: Fab234 (WT) (Fab, V domains shown)
VH: EVQLVESGGGLVKPGGSLRLSCAASGFNFSTHIMNWVRQAPGKGLEWVSSISSSGTYIYYADSMKGRFTISRDNPKNSLYLQMNSLRAEDTAVYYCARARGFIQFHYYMDVWGKGTTVAVSS
VL: SYVLTQPPSVSVAPGKTARITCGGNNIGSKSVHWHQQRPGQAPVLVVYDDKIRPSGIPERFSGSNSGNTATLIISRVEAGDEADYYCQVWHSSSDPVVFGGGTKLTVL
As to B1, the binding result in experiment [1] is “binds”.

B2: 5J8 Fab (WT) (Fab, V domains shown)
VH: EVQLVESGPGLVKPSDILSLTCAVSGYSISSNYYWGWIRQPPGKGLEWIGSIYHSGSTYYKPSLESRLGISVDTSKNQFSLKLSFVSAADTAVYYCARHVRSGYPDTAYYFDKWGQGTLVTVSS
VL: SYVLTQPPSVSVAPGETARISCGGNNIGTKVLHWYQQTPGQAPVLVVYDDSDRPSGIPERFSGSNSGNTATLTISRVEVGDEADYYCQVWDISTDQAVFGGGTKLTVL
notes: source: ExpiCHO cells, transiently co-transfected, purified (CaptureSelect CH1-XL)
As for B2, in experiment [2], the binding result is reported as “binds”.
